Source: US20080233097A1, “Phosphorylation Site Of Mitogen-Activated Protein Kinases, Modified Proteins And Applications” (UNIVERSIDAD AUTONOMA DE MADRID, priority 2005, published 2008)

How the values were obtained:
GST-MEF2A = assay: phosphorylation of GST-MEF2A by p38; type: biochemical; settings: with MKK6CAM, 2 μg GST-MEF2A
Protocol: FIG. 12A: In vitro phosphorylations are carried out with the fusion proteins indicated in the Figure, in the presence (+) or absence (−) of recombinant MKK6CAM(40 ng) and 2 μg of GST-MEF2A. The assay was left to take place for 30 minutes. The proteins were separated in 8% SDS-PAGE, stained with CBB and the incorporated radioactivity (^32P) was detected. Panels of a representative experiment of the three assays carried out independently are provided. FIG. 12B: The baseline activity of the three p38 fusion proteins in the absence of the MKK6CAM activator was evaluated in the previously described conditions. A representative autoradiography after a long exposure is shown.
(§1) The ATF2 and MEF2A forms bound to GST were used to test the catalytic activity of GST-p38. In most cases, 2 μg of GST-ATF2 or GST-MEF2A, of own production, were used. The phosphorylation conditions are the same as set forth in the foregoing cases. Nevertheless, in other occasions, relevantly pointed out in the Figures, 0.2 μg of substrate were used and the phosphorylation reaction was allowed to take pace for 15 minutes only.

MKK6 = assay: GST pull-down of purified MKK6; type: binding; settings: GST-p38 300 nM, MKK6 3 nM; vs T123A mutant or wild type
Protocol: (§2) Purified GST-p38 and its T123 mutants (300 nM) were incubated in the presence of purified MKK6 (3 nM) or His-tagged MAPKAPK2 ([…], 20 nM) in a pull down assay with GST as a negative control. Sedimented proteins were developed by Western Blot using anti-MKK6, anti-Histidine (for His-MK2) or anti-GST (for total amounts of GST-p38s) antibodies. In all panels, results are representative of three independent experiments performed in duplicate.
(§3) The proteins GST, GST-p38 wt, GST-p38T123A and GST-p38T123D were bacterially expressed and isolated using Gluthatione-Sepharose 4B (GE-Amersham) following standard procedures (Murga, C. et al. High affinity binding of beta-adrenergic receptor kinase to microsomal membranes. Modulation of the activity of bound kinase by heterotrimeric G protein activation. J Biol Chem 271, 985-994 (1996)). His-MAPKAPK2 was purified using Probond resin (Invitrogen) following manufacturer's indications. MKK6CAM was purchased from Upstate Biotech. The amount of proteins detailed in the legend to each figure were incubated in binding buffer (25 mM Tris pH 7.5, 0.25 M NaCl, 10 mM MgCl2, 5 mM NaF and 0.5% BSA) for 30 min at 30° C. with constant shaking. ATP (50 μM) was added for MAPKAPK2 pull downs. Precipitates were washed three times (10 ml) with the same buffer containing 0.5% Triton X100. Precipitated complexes were resolved by SDS-PAGE and developed by Western Blot.

MKK6CAM [1] = assay: p38 activation by MKK6CAM in situ (anti-phospho-p38) in HEK293 cells; type: cell-based, human; settings: HEK293, 150 ng p38 plasmid, 50 ng pCDNA3-MKK6CAM
Protocol: In overexpression experiments analogous to those described previously, HEK293 cells, seeded in M6 and always in duplicate, were transfected with: 150 ng of pCDNA3-Flag-p38α WT, or pCDNA3-Flag-p38α T123D and 50 ng of pCDNA3-MKK6CAM, (or empty pCDNA3). p38 activation with the anti-phospho-p38 antibody was evaluated. For each of the two isoforms, the activation by MKK6CAM was in reference to the baseline situation, obtaining a certain activation level. 100% activation was established as the p38α WT activation in each experiment. Data (±SEM) of three independent experiments are shown. A two-sided Student's-t test was carried out and *p<0.0001 was obtained. The right-hand side panels (Western blot) illustrate one of the experiments. […]
The HE 293 cells, generally subjected to starvation (medium without serum) of a variable duration: 2 hours in the case of p38 and all night in the case of ERK, were stimulated and, after processing the lysate cells, the immunodetection of the phosphoproteins was carried out with the phospho-specific antibodies of the activation segments of both proteins. […] The quantification of the bands was carried out in a laser densitometer. In all the cases, the values obtained for the bands detected with the anti-phospho-protein antibody were normalized in relation to the total amount of p38 or ERK expressed in the cells. […]

MAPKAPK2 (MK2) = biological target: T1, MAPKAPK2 (MK2) (Homo sapiens, UniProt P49137); assay: GST pull-down of His-tagged MAPKAPK2; type: binding; settings: GST-p38 300 nM, His-MK2 20 nM; vs T123A mutant or wild type
T1 construct: made in house
T1 sequence (P49137 with tags, fused parts or gaps): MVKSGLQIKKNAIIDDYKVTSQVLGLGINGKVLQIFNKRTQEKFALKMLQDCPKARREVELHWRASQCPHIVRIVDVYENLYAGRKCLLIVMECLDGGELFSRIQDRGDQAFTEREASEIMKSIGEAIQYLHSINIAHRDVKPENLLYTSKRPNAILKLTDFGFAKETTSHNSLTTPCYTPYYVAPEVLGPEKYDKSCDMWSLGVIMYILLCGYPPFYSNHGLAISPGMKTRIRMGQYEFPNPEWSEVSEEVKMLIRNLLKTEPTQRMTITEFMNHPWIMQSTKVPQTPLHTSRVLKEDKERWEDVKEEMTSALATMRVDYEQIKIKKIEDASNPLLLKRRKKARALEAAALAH
Protocol: as §2, §3

MKK6CAM [2] = assay: p38 phosphorylation by MKK6CAM in vitro; type: biochemical; settings: 150 nM fusion protein, 40 ng MKK6CAM
Protocol: (§4) The reactions were carried out at 30° C. for 30 minutes and the proteins were separated in 8% SDS-PAGE gels. The amount of p38 in each point was visualized by Coomassie Blue staining. Then the radioactivity in each p38 isoform was determined. […] FIG. 11B: In these same assays, the ability of MKK6CAM-activated GST-p38WT, GST-p38T123A and GST-p38T123D to phosphorylate 2 μg of GST-ATF2 is evaluated. The representative autoradiography (^32P) of the total GST-ATF2 control (Coomassie Blue) is attached.
As in the previous cases, the reactions were left to take place at 30° C. for 30 minutes and the proteins were resolved in 8% SDS-PAGE gels. With the purpose of assuring the inclusion of identical amounts of protein, they were visualized in the gel by Coomassie Blue staining. Subsequently, the radioactivity incorporated in each p38 isoform was determined.

GST-ATF2 = assay: phosphorylation of GST-ATF2 by MKK6CAM-activated p38; type: biochemical; settings: with MKK6CAM, 2 μg GST-ATF2
Protocol: as §4, §1

B1: p38T123D: p38α mutant; aspartic acid mimics the constitutively phosphorylated form of threonine 123 (protein, UniProt P47811 2-360, looked up, variant T123D)
Mitogen-activated protein …: SQERPTFYRQELNKTIWEVPERYQNLSPVGSGAYGSVCAAFDTKTGHRVAVKKLSRPFQSIIHAKRTYRELRLLKHMKHENVIGLLDVFTPARSLEEFNDVYLVTHLMGADLNNIVKCQKLDDDHVQFLIYQILRGLKYIHSADIIHRDLKPSNLAVNEDCELKILDFGLARHTDDEMTGYVATRWYRAPEIMLNWMHYNQTVDIWSVGCIMAELLTGRTLFPGTDHIDQLKLILRLVGTPGAELLKKISSESARNYIQSLAQMPKMNFANVFIGANPLAVDLLEKMLVLDSDKRITAAQALAHAYFAQYHDPDDEPVADPYDQSFESRDLLIDEWKSLTYDEVISFVPPPLDQEEMES
modifications: GST or Flag tag in some forms
catalytic activity on MEF2A (GST-MEF2A): completely abolished
ability to associate to MKK6 (MKK6): severely impaired
activation by MKK6CAM versus Flag-p38WT (MKK6CAM [1]): considerable reduction
ability to associate to MK2 (MAPKAPK2 (MK2)): severely impaired
phosphorylation by MKK6CAM (32P) (MKK6CAM [2]): much worse MKK6CAM substrate than the other two p38
catalytic activity on GST-ATF2 (GST-ATF2): lacks the most minimum catalytic activity
